{
  "source": "paper PMC4137731",
  "about": "“C-Terminal Domain Swapping of SSB Changes the Size of the ssDNA Binding Site”",
  "conditions_in_all_cases": "protein: recombinant; tags: none (untagged); chain copies: 4; label: 5' 32P",
  "key": {"KpSSBnPaSSBc [1]": {"target": "T1, KpSSBnPaSSBc (Klebsiella pneumoniae subsp. pneumoniae …, UniProt A6TGW7 1-91+P40947:91-165, internal_change)", "assay": "EMSA; monomer conc.; 1 complex; 20 mM Tris-HCl pH 8.0, 100 mM NaCl, 25°C 30 min, 1.7 nM DNA, protein 0-5000 nM; native 8% PAGE in TBE at 4°C"}, "KpSSBnStSSBc [2]": {"target": "T2, KpSSBnStSSBc (Klebsiella pneumoniae subsp. pneumoniae …, UniProt A6TGW7 1-91+P0A2F6:92-176, internal_change)", "assay": "EMSA; monomer conc.; 1 complex; 20 mM Tris-HCl pH 8.0, 100 mM NaCl, 25°C 30 min, 1.7 nM DNA, protein 0-5000 nM; native 8% PAGE in TBE at 4°C"}, "KpSSBnPaSSBc [3]": {"target": "T1, KpSSBnPaSSBc", "assay": "EMSA; no complex observed up to 5000 nM; 20 mM Tris-HCl pH 8.0, 100 mM NaCl, 25°C 30 min, 1.7 nM DNA, protein 0-5000 nM; native 8% PAGE in TBE at 4°C"}, "KpSSBnPaSSBc [4]": {"target": "T1, KpSSBnPaSSBc", "assay": "EMSA; monomer conc.; 2 complexes; 20 mM Tris-HCl pH 8.0, 100 mM NaCl, 25°C 30 min, 1.7 nM DNA, protein 0-5000 nM; native 8% PAGE in TBE at 4°C"}, "KpSSBnStSSBc [5]": {"target": "T2, KpSSBnStSSBc", "assay": "EMSA; monomer conc.; 2 complexes; 20 mM Tris-HCl pH 8.0, 100 mM NaCl, 25°C 30 min, 1.7 nM DNA, protein 0-5000 nM; native 8% PAGE in TBE at 4°C"}},
  "data": [
    {"binder": "TTTTTTTTTTTTTTTTTTTTTTTTT (ssDNA)", "note": "[dT25]", "values": [
      {"measurement": "apparent K (half saturation)", "setting": "KpSSBnPaSSBc [1]", "result": "390 ± 60", "unit": "nM"}
    ]},
    {"binder": "dT55 (ssDNA) DNA: TTTTTTTTTTTTTTTTTTTTTTTTTTTTTTTTTTTTTTTTTTTTTTTTTTTTTTT", "values": [
      {"measurement": "apparent K (half saturation)", "setting": "KpSSBnPaSSBc [1]", "result": "230 ± 30", "unit": "nM"}
    ]},
    {"binder": "TTTTTTTTTTTTTTTTTTTT (ssDNA)", "note": "[dT20]", "values": [
      {"measurement": "apparent K (half saturation)", "setting": "KpSSBnStSSBc [2]", "result": "110 ± 20", "unit": "nM"},
      {"measurement": "binding result", "setting": "KpSSBnPaSSBc [3]", "result": "no binding"}
    ]},
    {"binder": "dT60 (ssDNA) DNA: TTTTTTTTTTTTTTTTTTTTTTTTTTTTTTTTTTTTTTTTTTTTTTTTTTTTTTTTTTTT", "values": [
      {"measurement": "apparent K (half saturation)", "setting": "KpSSBnPaSSBc [4]", "result": "230 ± 30", "unit": "nM"}
    ]},
    {"binder": "TTTTTTTTTTTTTTTTTTTTTTTTTTTTTTTTTTTTTTTT (ssDNA)", "note": "[dT40]", "values": [
      {"measurement": "apparent K (half saturation)", "setting": "KpSSBnPaSSBc [1]", "result": "220 ± 30", "unit": "nM"},
      {"measurement": "apparent K (half saturation)", "setting": "KpSSBnStSSBc [2]", "result": "120 ± 20", "unit": "nM"}
    ]},
    {"binder": "TTTTTTTTTTTTTTTTTTTTTTTTTTTTTTTTTTTTTTTTTTTTT (ssDNA)", "note": "[dT45]", "values": [
      {"measurement": "apparent K (half saturation)", "setting": "KpSSBnStSSBc [5]", "result": "160 ± 20", "unit": "nM"}
    ]},
    {"binder": "TTTTTTTTTTTTTTT (ssDNA)", "note": "[dT15]", "values": [
      {"measurement": "apparent K (half saturation)", "setting": "KpSSBnStSSBc [2]", "result": "260 ± 60", "unit": "nM"}
    ]}
  ]
}
